Source: patent US20040038888A1 (priority 2002, published 2004)

Tests used:
ADCYAP1R1 = biological target: T1, ADCYAP1R1 (Homo sapiens, UniProt P41586); conditions: unlike PACAP, which binds ADCYAP1R1 and VIPR1 & 2; Moro and Lerner 1997; cited from earlier work
T1 sequence (P41586 21-468): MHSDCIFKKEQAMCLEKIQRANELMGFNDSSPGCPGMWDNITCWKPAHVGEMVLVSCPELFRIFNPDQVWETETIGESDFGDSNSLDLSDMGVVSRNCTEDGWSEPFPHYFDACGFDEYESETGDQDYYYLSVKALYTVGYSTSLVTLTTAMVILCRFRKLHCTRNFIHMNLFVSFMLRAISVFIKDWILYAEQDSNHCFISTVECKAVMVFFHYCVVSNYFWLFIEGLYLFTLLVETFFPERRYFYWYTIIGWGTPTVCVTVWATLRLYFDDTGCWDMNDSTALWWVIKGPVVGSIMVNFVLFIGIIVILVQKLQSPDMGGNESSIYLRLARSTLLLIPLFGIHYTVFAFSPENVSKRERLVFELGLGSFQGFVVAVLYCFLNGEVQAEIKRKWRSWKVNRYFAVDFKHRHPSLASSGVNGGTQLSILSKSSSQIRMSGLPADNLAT

[1] = tested on: mouse adult neural stem cells; assay: Intracellular ATP assay, adult mouse NSC, non-adherent culture; type: cell-based; conditions: varying concentrations, non-adherent conditions, 3 days, relative to control, dose-dependent
Procedure: The anterior lateral wall of the lateral ventricle of 5-6 week old mice was enzymatically dissociated in 0.8 mg/ml hyaluronidase and 0.5 mg/ml trypsin in DMEM containing 4.5 mg/ml glucose and 80 units/ml DNase at 37° C. for 20 min. The cells were gently triturated and mixed with three volumes of Neurosphere medium (DMEM/F12, B27 supplement, 12.5 mM HEPES pH7.4) containing 20 ng/ml EGF (unless otherwise stated), 100 units/ml penicillin and 100μg/ml streptomycin. After passing through a 70 μm strainer, the cells were pelleted at 160×g for 5 min. The supernatant was subsequently removed and the cells resuspended in Neurosphere medium supplemented as above, plated out in culture dishes and incubated at 37° C. Neurospheres were ready to be split approximately 7 days after plating.
To split neurosphere cultures, neurospheres were collected by centrifugation at 160×g for 5 min. […]
Mouse neurospheres, cultured as described above, from passage 2, were seeded in DMEM/F12 supplemented with B27 into a 96-well plate as single cells (10000 cells/well) to the substances to be measured were added at the concentrations indicated. After 3 days incubation, intracellular ATP was measured using the ATP-SL kit from BioThema, Sweden, according to the manufacturer's instructions. […]

B1: Maxadilan: 63 amino acid peptide from salivary gland extracts of the sand fly; specific ADCYAP1R1 agonist (SEQ ID NO: 13) (peptide, listed as Mus musculus)
chain: CDATCQFRKAIEDCRKKAHHSDVLQTSVQTTATFTSMDTSQLPGSGVFKECMKEKAKEFKAGK
For B1, the binding specificity (ADCYAP1R1) is given as “binds specifically to only ADCYAP1R1” and the “intracellular ATP levels, and hence cell number” value [1] is given as “statistically significant increase in intracellular ATP levels”.
